{"source": "patent US20240165209A1", "about": "“PLACENTAL ALKALINE PHOSPHATASE FOR REDUCING THE LOSS OF RED BLOOD CELLS, WHITE BLOOD CELLS, AND PLATELETS IN CHEMOTHERAPY TREATED CANCER PATIENTS” (ZOLTAN LABORATORIES, LLC, priority 2021, published 2024)", "molecules": {"B1": {"name": "PLAP: highly purified native placental alkaline phosphatase derived from human placenta via conventional purification methods (protein, UniProt P05187 23-506, looked up)", "Alkaline phosphatase, …": "IIPVEEENPDFWNREAAEALGAAKKLQPAQTAAKNLIIFLGDGMGVSTVTAARILKGQKKDKLGPEIPLAMDRFPYVALSKTYNVDKHVPDSGATATAYLCGVKGNFQTIGLSAAARFNQCNTTRGNEVISVMNRAKKAGKSVGVVTTTRVQHASPAGTYAHTVNRNWYSDADVPASARQEGCQDIATQLISNMDIDVILGGGRKYMFRMGTPDPEYPDDYSQGGTRLDGKNLVQEWLAKRQGARYVWNRTELMQASLDPSVTHLMGLFEPGDMKYEIHRDSTLDPSLMEMTEAALRLLSRNPRGFFLFVEGGRIDHGHHESRAYRALTETIMFDDAIERAGQLTSEEDTLSLVTADHSHVFSFGGYPLRGSSIFGLAPGKARDRKAYTVLLYGNGPGYVLKDGARPDVTESESGSPEYRQQSAVPLDEETHAGEDVAVFARGPQAHLVHGVQEQTFIAHVMAFAACLEPYTACDLAPPAGTTD"}}, "key": {"bone marrow MSCs": {"system": "bone marrow MSCs", "test": "DNA synthesis ([3H]thymidine incorporation) in MSCs", "type": "cell-based, human", "settings": "20 hours", "text": "For the experiment, bone marrow aspirates were taken from normal human adult donors after informed consent. For the preparation of bone marrow MSCs, essentially a widely used technique was used as described earlier by others [Pittenger, M. F., Mackay, A. M., Beck, S. C., et al. (1999) Multilineage potential of adult human mesenchymal stem cells. Science 284, 143-147]. Briefly, nucleated cells were isolated with a pre-prepared commercial density gradient (Lymphoprep, Nycomed, Pharma, Oslo, Norway) and re-suspended in Dulbecco's modified Eagle's medium (DMEM) (GIBCO, Grand Island, NY) supplemented with 10% fetal calf serum (FCS), 50 U/ml of penicillin, and 50 μg/ml of streptomycin (GIBCO). All nucleated cells were plated in 25-cm^2 flasks (BD Falcon, Bedford, MA) at 37° C. in humidified atmosphere containing 5% CO2. After 24 hours, non-adherent cells were removed and cryopreserved in liquid nitrogen until use. The remaining adherent cells were thoroughly washed with Hanks balanced salt solution (HBSS) (GIBCO). Fresh complete culture medium was added and replaced every 3 or 4 days (twice a week). When cells grew to about 80% confluence, they were suspended and harvested by incubating with a ready-made solution containing 0.25% trypsin and 1 mM EDTA (Sigma-Aldrich, St. Louis, MO) for 5 minutes at 37° C.; this cell suspension is designated as passage 1. These cells were further expanded with 1:3-1:5 splitting in 175-cm^2 flasks (BD Falcon). For the determination of DNA synthesis, cells were divided into 12-well plates in the complete medium and let the cells grow to about 60% confluence. After changing the spent medium for fresh complete medium (i.e., containing 10% fetal calf serum), cells were treated for 20 hours with 20-100 μM ATP and/or 200 nM PLAP as well as 50-200 μM Cyp in the absence or presence of 200 nM PLAP. For labeling newly formed DNA, cells received 1,130,000 d.p.m. [^3H] thymidine for the last 4 hours of the treatment period. DNA synthesis was determined as described earlier [She, Q.-B., Mukherjee, J. J., Huang, J.-S., Crilly, K. S. and Kiss, Z. (2000) Growth factor-like effects of placental alkaline phosphatase in human fetus and mouse embryo fibroblasts. FEBS Lett. 469, 163-167]. The data is expressed as d.p.m. [^3H] thymidine incorporated into DNA/well (n=3)."}, "[1]": {"settings": "amifostine treatment, intravenous route, cancer patients; cited from earlier work"}, "[2]": {"system": "mouse bone marrow-derived hematopoietic stem cells (HSCs)", "settings": "3 days", "procedure": "Bone marrow was harvested by flushing bones from female C57/BL/6 mice in Fischer medium (Thermo Fisher Scientific; catalogue no. 21475025) containing 20% horse serum (Hyclone, Logan, UT), 100 Unit/ml penicillin, […] streptomycin (Gibco, BRL), 0.015 fungizone (Gibco, BRL), and 0.1 μM hydrocortisone sodium succinate (SynoPharm; Hamburg, Germany). Pooled stem cells were seeded into 25 cm 3 flasks (10 ml cell suspension) and after 3 days of incubation at 33° C. in 5% CO2 in air in the absence of PLAP, they were plated into 12-well plates and were incubated in the absence (n=8) or presence of 50 μg/ml PLAP (n=8) for additional 3 days.\nIn a follow up experiment with hematopoietic stem cells, the same incubation medium in 12-well plates contained either no other addition (n=8) or contained 200 μM Cyp without (n=8) or with 50 μg/ml PLAP (n=8) for 3 days."}, "[3]": {"settings": "purified PLAP; cited from earlier work"}, "[4]": {"test": "Spectrophotometric assay of PLAP enzyme activity (hydrolysis of 4-nitrophenylphosphate)", "type": "biochemical", "settings": "22° C., pH 9.8, 10 mM 4-nitrophenylphosphate", "text": "Human PLAP (Type XXIV, 1020 units of total activity) in a partially purified form was obtained commercially from Sigma-Aldrich. A butanol extraction of placental tissue performed by Sigma-Aldrich to obtain the partially purified material was followed by chromatography steps as described in [Chang, T.-C., Huang, S.-M, Huang, T.-M. and Chang, G.-G. Human placental alkaline phosphatase: An improved purification procedure and kinetic studies. Eur. J. Biochem. 209, 241-247, 1992] to obtain an essentially pure preparation of PLAP as determined by sodium dodecyl sulfate-polyacrylamide gel electrophoresis (SDS-PAGE). The enzyme activity of PLAP was assayed using a spectroscopic method to monitor the hydrolysis of 4-nitrophenylphosphate (as an increase in absorbance at 410 nm) at room temperature (22° C.) as described in [Chang, G.-G., Shiao, M.-S., Lee, K.-R. and Wu, J.-J., Modification of human placental alkaline phosphatase by periodate-oxidized 1,N6-ethenoadenosine monophosphate. Biochem. J., 272, 683-690, 1990]. Activity analysis of 5-10-μg purified enzyme was performed in 1 mL incubation volume containing 50 mM Na2CO3/NaHCO3, 10 mM MgCl2, 10 mM 4-nitrophenylphosphate at pH 9.8. The extinction coefficient of 4-nitrophenol was taken as 1.62×10^4 M^−1 cm^−1. An enzyme activity of 1 U (unit) is defined as 1 μmole substrate hydrolyzed per 1 min at 22° C. at pH 9.8. […]"}}, "data": [{"molecule": "Nc1ncnc2c1ncn2[C@@H]1O[C@H](COP(=O)(O)OP(=O)(O)OP(=O)(O)O)[C@@H](O)[C@H]1O", "note": "[ATP]", "values": [{"measurement": "d.p.m. [^3H] thymidine incorporated into DNA/well", "setting": "bone marrow MSCs; ATP 20 μM, no PLAP", "result": "70,738 ± 1,367 d.p.m."}, {"measurement": "d.p.m. [^3H] thymidine incorporated into DNA/well", "setting": "bone marrow MSCs; ATP 50 μM, no PLAP", "result": "55,808 ± 1,480 d.p.m."}, {"measurement": "d.p.m. [^3H] thymidine incorporated into DNA/well", "setting": "bone marrow MSCs; ATP 100 μM, no PLAP", "result": "38,601 ± 1,940 d.p.m."}]}, {"molecule": "NCCCNCCSP(=O)(O)O", "note": "[amifostine]", "values": [{"measurement": "patients with reversible clinical hypotension, protracted nausea and vomiting", "setting": "[1]", "result": "15-20%"}]}, {"molecule": "B1", "values": [{"measurement": "change of the number of hematopoietic stem cells", "setting": "[2]; 50 μg/ml PLAP, no Cyp", "result": "did not significantly change"}, {"measurement": "decrease of the number of cells by Cyp", "setting": "[2]; 200 μM Cyp, presence of 50 μg/ml PLAP", "result": 10, "unit": "%"}, {"measurement": "half-life time in human circulation", "setting": "[3]", "result": "about 7 days"}, {"measurement": "specific activity of purified PLAP", "setting": "[4]", "result": 685, "unit": "Units per mg protein"}, {"measurement": "d.p.m. [^3H] thymidine incorporated into DNA/well", "setting": "bone marrow MSCs; PLAP 200 nM + ATP 20 μM", "result": "90,708 ± 2,518 d.p.m."}, {"measurement": "d.p.m. [^3H] thymidine incorporated into DNA/well", "setting": "bone marrow MSCs; PLAP 200 nM + ATP 50 μM", "result": "84,740 ± 3,231 d.p.m."}, {"measurement": "d.p.m. [^3H] thymidine incorporated into DNA/well", "setting": "bone marrow MSCs; PLAP 200 nM + ATP 100 μM", "result": "80,916 ± 2,252 d.p.m."}, {"measurement": "d.p.m. [^3H] thymidine incorporated into DNA/well", "setting": "bone marrow MSCs; PLAP 200 nM + Cyp 50 μM", "result": "81,887 ± 3,173 d.p.m."}, {"measurement": "d.p.m. [^3H] thymidine incorporated into DNA/well", "setting": "bone marrow MSCs; PLAP 200 nM + Cyp 200 μM", "result": "74,798 ± 2,408 d.p.m."}, {"measurement": "d.p.m. [^3H] thymidine incorporated into DNA/well", "setting": "bone marrow MSCs; PLAP 200 nM, no ATP", "result": "89,865 ± 2,021 d.p.m."}]}]}
